What is called EC50 is the concentration giving half of the maximal effect.

Among the data in patent US20230312753A1 (IMMUNORIZON, published 2023) are EC50 values, retold here.

The target of assay [1] is T1, h5T4-His (recombinant human 5T4) (human, UniProt Q13641 32-355, limits assumed).
T1 construct: Bought protein; also called recombinant 5T4
T1 sequence (looked up): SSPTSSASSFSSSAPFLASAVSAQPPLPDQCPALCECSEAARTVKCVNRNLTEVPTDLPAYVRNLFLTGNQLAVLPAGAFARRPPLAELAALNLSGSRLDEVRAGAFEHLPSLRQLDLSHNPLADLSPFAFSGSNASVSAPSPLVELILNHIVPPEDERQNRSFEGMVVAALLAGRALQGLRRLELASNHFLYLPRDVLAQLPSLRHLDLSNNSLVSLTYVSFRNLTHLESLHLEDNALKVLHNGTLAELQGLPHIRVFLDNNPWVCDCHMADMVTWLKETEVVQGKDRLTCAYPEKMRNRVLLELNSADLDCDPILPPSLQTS
The assay can be described thus: ELISA on coated h5T4-His (FIG. 43B). Here is the method: Methods: ELISA binding of Tribody/ProTribody antibody constructs to antigens: Dilute target protein (hCD3epsilon-His (cat # 10977-H08S, supplier Sino Biological); h5T4-His (cat# 19845-H08H, supplier Sino Biological); NKG2A-CD94-ECD-hFc, Lot:20200724002, provided by CP; or NKG2D-ECD-hFc, Lot: 20200413002, provided by CP) into PBS with final concentration of 0.01 µg/mL for hCD3epsilon-His, 0.3 µg/mL for h5T4-His, 1 µg/mL for NKG2A-CD94-ECD-hFc and 0.7 µg/mL for hNKG2D-ECD-hFc respectively and coat 100 µL/well on ELISA plate (cat: 9018, supplier Corning) respectively. Incubate O/N, 4° C. The plates were blocked with 250 µL 1% BSA in PBST for 1 hr at 37° C.Wash 4 times with PBST. All the washes are done using Biotek (Elx 405). All the Tribody set antibodies were diluted to 400 nM and make 4-fold serially dilutions (12 points, including 0 point). Add 100 µL/well diluted antibody constructs solution to plate, incubate for 1 hr at 37° C.Wash 4 times with PBST. Add 100 µL/well anti-human kappa light chain-HRP (1:10000), incubate for 0.5 hr at 37° C. Wash 4 times with PBST. 100 µL/well of TMB substrate was added and incubated at room temperature for 5 min. 100 µL/well of 1N HCl to terminate reaction. Plates were read using ELISA plate reader at 450 nm wavelength (instrunet SpectraMax M5e). Data Analysis was performed using Graphpad prism 5 software by using nonlinear regression (curve fit): log (agonist) vs. response, agonist is antibody concentration (nM) and response is OD value.
In general terms: In an ELISA, binding on a coated surface is turned into a signal by an enzyme label.

Assay [2] addresses T2, 5T4 on cells (NCI-H226 endogenous; CHO over-expressing 5T4) (UniProt Q13641 32-420, limits assumed).
T2 construct: whole, on cells
T2 sequence (looked up): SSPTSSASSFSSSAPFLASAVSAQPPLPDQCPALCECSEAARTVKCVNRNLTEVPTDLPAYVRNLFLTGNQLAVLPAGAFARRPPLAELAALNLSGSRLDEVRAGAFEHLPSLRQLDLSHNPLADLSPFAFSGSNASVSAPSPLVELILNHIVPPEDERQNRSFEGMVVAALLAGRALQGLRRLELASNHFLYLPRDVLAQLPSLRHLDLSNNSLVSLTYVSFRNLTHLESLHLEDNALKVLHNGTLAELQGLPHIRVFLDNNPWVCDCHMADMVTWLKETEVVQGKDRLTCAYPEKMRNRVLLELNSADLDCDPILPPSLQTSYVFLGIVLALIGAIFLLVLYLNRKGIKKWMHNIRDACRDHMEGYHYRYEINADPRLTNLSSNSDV
The assay can be described thus: FACS on NCI-H226 cells, endogenous 5T4 (FIG. 45B). The procedure: (§1) Suspension cultured cells was harvested directly, and adherent cell were digested using TrypLE Express Enzyme (cat: 12604-013, supplier Life technologies). Centrifuge at 1000 rpm for 5 min and discard the supernatant. Cells are suspended at a concentration of 2×10⁶/mL in FACS buffer (2% FBS in PBS) and add 100 µL/well of cell suspension to the plate (cat #3799, supplier Corning). Centrifuging the plates at 2000 rpm for 5 min and discard the supernatant. Re-suspend the cells in 100 µL/well of Tribody set antibodies (400 nM start, 4-fold dilution, 8 point including 0 point) and incubate the plate for 60 min at 4° C. Centrifuge the plate at 2000 rpm, 4° C. for 5 min and discard supernatant. Then wash the cells 3 times with 170 µL FACS buffer. Re-suspend the cells at 100 µL/well with secondary antibody (goat anti-human Ig Fab-FITC, Cat # 2085-02, Southern biotech) with 1:400 dilution and incubate the plate for 30 min at 4° C. in dark. Centrifuge the plate at 2000 rpm, 4° C. for 5 min and discard supernatant. […] The fluorescence intensity of the staining was measured using flow cytometer (BD, FACSVerse). The geometric mean fluorescence intensity (GMFI; median fluorescence intensity (MFI)) of set antibodies staining was calculated (BD FACSuite software). Dose-response curves were generated and EC50s for thetrispecific variants binding were calculated using GraphPad Prism software.

Assay [3] addresses T3, human CD3 epsilon on cells (Jurkat T cells, endogenous) (human, UniProt P07766 23-207).
T3 construct: whole, on cells; On cells CD3 epsilon stands in the TCR/CD3 complex; only the epsilon chain is named as target; also called hCD3ε on Jurkat; CD3ε expressing cells
The assay is described as follows: FACS on Jurkat T cells, endogenous hCD3ε (FIG. 45A). Here is the method: as §1, with “buffer.” for “buffer. Re-suspend the cells at 100 µL/well with secondary antibody (goat anti-human Ig Fab-FITC, Cat # 2085-02, Southern biotech) with 1:400 dilution and incubate the plate for 30 min at 4° C. in dark. Centrifuge the plate at 2000 rpm, 4° C. for 5 min and discard supernatant.”
Results: The expressed trispecific constructs were analyzed for their binding to cells expressing endogenous CD3ε, 5T4 and NKG2A/NKG2D.

The target in assay [4] is T4, NKG2A/CD94 on CHO cells (CHOK1-NKG2A-CD94) (human, UniProt P26715 1-233; Q13241 1-179, limits assumed).
T4 construct: whole, on cells; also called CHO cells over-expressing NKG2A/CD94; CHO cell line over expressing ectopic NKG2A
The assay can be described thus: FACS on CHO cells over-expressing ectopic NKG2A (NKG2A/CD94 by the legend) (FIG. 45E). Here is the method: as §1

T3 sequence (P07766 23-207): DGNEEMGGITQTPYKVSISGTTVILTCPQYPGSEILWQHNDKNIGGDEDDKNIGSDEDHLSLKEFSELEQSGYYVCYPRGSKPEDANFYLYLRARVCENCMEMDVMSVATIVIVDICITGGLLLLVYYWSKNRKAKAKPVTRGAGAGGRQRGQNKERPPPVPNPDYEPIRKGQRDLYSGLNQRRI
T4 sequence (P26715 whole entry, chain 1 of 2): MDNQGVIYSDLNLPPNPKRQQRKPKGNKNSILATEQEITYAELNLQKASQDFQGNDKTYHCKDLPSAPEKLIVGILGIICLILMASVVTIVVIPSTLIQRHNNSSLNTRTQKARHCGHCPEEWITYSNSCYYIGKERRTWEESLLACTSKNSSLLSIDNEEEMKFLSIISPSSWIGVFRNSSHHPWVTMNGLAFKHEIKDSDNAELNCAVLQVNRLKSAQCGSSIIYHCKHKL
T4 sequence (Q13241 whole entry, chain 2 of 2): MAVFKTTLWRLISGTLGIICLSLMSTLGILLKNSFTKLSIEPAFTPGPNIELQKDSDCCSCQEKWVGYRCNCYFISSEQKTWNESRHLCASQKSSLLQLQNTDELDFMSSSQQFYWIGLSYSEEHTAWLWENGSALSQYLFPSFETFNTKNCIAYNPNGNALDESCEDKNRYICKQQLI

B1: IM-1062 Tribody (other)
heavy: GGSGGSEVQLVESGGGLVQPGGSLRLSCAASGFTFNTYAMNWVRQAPGKGLEWVARIRSKYNNYATYYADSVKDRFTISRDDSKNTLYLQMNSLRAEDTAVYYCVRHGNFGNSYVSWFAYWGQGTMVTVSSASTKGPSVFPLAPSSKSTSGGTAALGCLVKDYFPEPVTVSWNSGALTSGVHTFPAVLQSSGLYSLSSVVTVPSSSLGTQTYICNVNHKPSNTKVDKRVEPKSCPPCGGGGSDIQMTQSPSSLSASVGDRVTITCRASENIYSYLAWYQQKPGKAPKLLIYNAKTLAEGVPSRFSGSGSGTDFTLTISSLQPEDFATYYCQHHYGTPRTFGGGTKVEIKGGGGSGGGGSGGGGSGGGGSQVQLVQSGAEVKKPGASVKVSCKASGYTFTSYWMNWVRQAPGQGLEWMGRIDPYDSETHYAQKLQGRVTMTTDTSTSTAYMELRSLRSDDTAVYYCARGGYDFDVGTLYWFFDVWGQGTTVTVSS
light: GGSGGSQAVVTQEPSLTVSPGGTVTLTCRSSTGAVTTSNYANWVQQKPGQAPRGLIGGTNKRAPGTPARFSGSLLGGKAALTLSGVQPEDEAEYYCALWYSNLWVFGGGTKLTVLGQPKAAPSVTLFPPSSEELQANKATLVCLISDFYPGAVTVAWKADSSPVKAGVETTTPSKQSNNKYAASSYLSLTPEQWKSHRSYSCQVTHEGSTVEKTVAPTECPPCSGGGSDIQMTQSPSSLSASVGDRVTITCRASQGISNYLAWFQQKPGKAPKSLIYRANRLQSGVPSRFSGSGSGTDFTLTISSLQPEDVATYYCLQYDDFPWTFGQGTKLEIKGGGGSGGGGSGGGGSGGGGSQVQLVQSGAEVKKPGASVKVSCKASGYTFTSFWMHWVRQAPGQGLEWMGRIDPNRGGTEYNEKAKSRVTMTADKSTSTAYMELSSLRSEDTAVYYCAGGNPYYPMDYWGQGTTVTVSS
notes: Tri-specific antibody (Tribody): anti-CD3 epsilon Fab with an anti-5T4 scFv and an anti-NKG2A scFv, no regulatory domain; also called the Tribody format
Take B1: the EC50 in assay [1] was found to be 45 nM; in assay [2], 1.78 nM; in assay [3], 1.1 nM; in assay [4], 29 nM.
